Experimental data: publication PMC7568260, “In vitro reconstitution and characterization of pyruvate dehydrogenase and 2‐oxoglutarate dehydrogenase hybrid complex from Corynebacterium glutamicum” (MicrobiologyOpen, 2020)

Experiments:
[1] = target: CgE1o (thiamine diphosphate-dependent 2-oxoglutarate dehydrogenase, OdhA), C-terminal His-tagged (Corynebacterium glutamicum) (UniProt Q8NRC3); assay: SEC; HiLoad 26/600 Superdex 200 pg or Superose 6 10/300 GL column, TESG10N buffer; mixtures incubated on ice for 30 min before the run; masses estimated against size standards; fractions read by SDS-PAGE (CBB) or Western blot
[2] = target: CgE1p (thiamine diphosphate-dependent pyruvate dehydrogenase, AceE), C-terminal His- and Flag-tagged (Corynebacterium glutamicum) (UniProt Q8NNF6); assay: as above
[3] = target: CgE2-E3 subcomplex (Corynebacterium glutamicum) (UniProt Q8NNJ2)
purified protein [4] = substrate: CC(=O)C(=O)O; assay: purified protein; assay type: biochemical, Corynebacterium glutamicum; conditions: 0.2 mM CoA, 0.3 mM thiamine pyrophosphate, 3 mM L-cysteine, 5 mM MgCl2, 1 mM APAD+ (NAD+ analogue), TES-NaOH pH 7.6, 30 °C, CgE1p 15 μg with CgE2-E3 15 μg
purified protein [5] = substrate: O=C(O)CCC(=O)C(=O)O; assay: purified protein; assay type: biochemical, Corynebacterium glutamicum; conditions: 0.2 mM CoA, 0.3 mM thiamine pyrophosphate, 3 mM L-cysteine, 5 mM MgCl2, 1 mM APAD+ (NAD+ analogue), TES-NaOH pH 7.6, 30 °C, CgE1o 20 μg with CgE2-E3 15 μg

“CgE1o (thiamine diphosphate-dependent 2-oxoglutarate dehydrogenase, OdhA), C-terminal His-tagged (from UniProt Q8NRC3 1-1221) (enzyme)” was tested. Which stoichiometry N [1] did it give?
Its stoichiometry N is 6.

For “CgE1p (thiamine diphosphate-dependent pyruvate dehydrogenase, AceE), C-terminal His- and Flag-tagged (from UniProt Q8NNF6 1-922) (enzyme)”, which stoichiometry N [2] is on record?
Its stoichiometry N is 2.

And the PDH activity against the amount of CgE1p (37, 150, 300, 600 pmol) with a fixed amount of CgE2-E3 (18 pmol) [3]?
Its PDH activity against the amount of CgE1p (37, 150, 300, 600 pmol) with a fixed amount of CgE2-E3 (18 pmol) is 150 pmol.

B1: reconstituted PDH complex (CgE1p with CgE2‐E3) (Corynebacterium glutamicum ATCC 13032) (protein)
chain: MADQAKLGGKPSDDSNFAMIRDGVASYLNDSDPEETNEWMDSLDGLLQESSPERARYLMLRLLERASAKRVSLPPMTSTDYVNTIPTSMEPEFPGDEEMEKRYRRWIRWNAAIMVHRAQRPGIGVGGHISTYAGAAPLYEVGFNHFFRGKDHPGGGDQIFFQGHASPGMYARAFMEGRLSEDDLDGFRQEVSREQGGIPSYPHPHGMKDFWEFPTVSMGLGPMDAIYQARFNRYLENRGIKDTSDQHVWAFLGDGEMDEPESRGLIQQAALNNLDNLTFVVNCNLQRLDGPVRGNTKIIQELESFFRGAGWSVIKVVWGREWDELLEKDQDGALVEIMNNTSDGDYQTFKANDGAYVREHFFGRDPRTAKLVENMTDEEIWKLPRGGHDYRKVYAAYKRALETKDRPTVILAHTIKGYGLGHNFEGRNATHQMKKLTLDDLKLFRDKQGIPITDEQLEKDPYLPPYYHPGEDAPEIKYMKERRAALGGYLPERRENYDPIQVPPLDKLRSVRKGSGKQQIATTMATVRTFKELMRDKGLADRLVPIIPDEARTFGLDSWFPTLKIYNPHGQNYVPVDHDLMLSYREAPEGQILHEGINEAGSVASFIAAGTSYATHGKAMIPLYIFYSMFGFQRTGDSIWAAADQMARGFLLGATAGRTTLTGEGLQHMDGHSPVLASTNEGVETYDPSFAYEIAHLVHRGIDRMYGPGKGEDVIYYITIYNEPTPQPAEPEGLDVEGLHKGIYLYSRGEGTGHEANILASGVGMQWALKAASILEADYGVRANIYSATSWVNLARDGAARNKAQLRNPGADAGEAFVTTQLKQTSGPYVAVSDFSTDLPNQIREWVPGDYTVLGADGFGFSDTRPAARRFFNIDAESIVVAVLNSLAREGKIDVSVAAQAAEKFKLDDPTSVSVDPNAPEE
notes: CgE1p C-terminal His (and Flag) tag, pKH4, 102,826 Da, dimer in solution; CgE2 (70,905 Da, lipoylated) co-expressed with N-terminal His/Flag CgE3 (50,652 Da), pKH13; E. coli BL21-CodonPlus (DE3); tags not cut; gel-filtration purified; with Dihydrolipoamide acetyltransferase component of pyruvate dehydrogenase complex (E2); Dihydrolipoyl dehydrogenase (E3)
How did the Km (purified protein [4]) turn out when B1 was run?
Its Km is 3500 ± 200 µM.

B2: reconstituted ODH complex (CgE1o with CgE2‐E3) (Corynebacterium glutamicum ATCC 13032) (protein)
chain: SSASTFGQNAWLVDEMFQQFQKDPKSVDKEWRELFEAQGGPNTTPATTEAQPSAPKESAKPAPKAAPAAKAAPRVETKPADKTAPKAKESSVPQQPKLPEPGQTPIRGIFKSIAKNMDISLEIPTATSVRDMPARLMFENRAMVNDQLKRTRGGKISFTHIIGYAMVKAVMAHPDMNNSYDVIDGKPTLIVPEHINLGLAIDLPQKDGSRALVVAAIKETEKMNFSEFLAAYEDIVARSRKGKLTMDDYQGVTVSLTNPGGIGTRHSVPRLTKGQGTIIGVGSMDYPAEFQGASEDRLAELGVGKLVTITSTYDHRVIQGAVSGEFLRTMSRLLTDDSFWDEIFDAMNVPYTPMRWAQDVPNTGVDKNTRVMQLIEAYRSRGHLIADTNPLSWVQPGMPVPDHRDLDIETHNLTIWDLDRTFNVGGFGGKETMTLREVLSRLRAAYTLKVGSEYTHILDRDERTWLQDRLEAGMPKPTQAEQKYILQKLNAAEAFENFLQTKYVGQKRFSLEGAEALIPLMDSAIDTAAGQGLDEVVIGMPHRGRLNVLFNIVGKPLASIFNEFEGQMEQGQIGGSGDVKYHLGSEGQHLQMFGDGEIKVSLTANPSHLEAVNPVMEGIVRAKQDYLDKGVDGKTVVPLLLHGDAAFAGLGIVPETINLAKLRGYDVGGTIHIVVNNQIGFTTTPDSSRSMHYATDYAKAFGCPVFHVNGDDPEAVVWVGQLATEYRRRFGKDVFIDLVCYRLRGHNEADDPSMTQPKMYELITGRETVRAQYTEDLLGRGDLSNEDAEAVVRDFHDQMESVFNEVKEGGKKQAEAQTGITGSQKLPHGLETNISREELLELGQAFANTPEGFNYHPRVAPVAKKRVSSVTEGGIDWAWGELLAFGSLANSGRLVRLAGEDSRRGTFTQRHAVAIDPATAEEFNPLHELAQSKGNNGKFLVYNSALTEYAGMGFEYGYSVGNEDSIVAWEAQFGDFANGAQTIIDEYVSSGEAKWGQTSKLILLLPHGYEGQGPDHSSARIERFLQLCAEGSMTVAQPSTPANHFHLLRRHALSDLKRPLVIFTPKSMLRNKAAASAPEDFTEVTKFQSVINDPNVADAAKVKKVMLVSGKLYYELAKRKEKDGRDDIAIVRIEMLHPIPFNRISEALAGYPNAEEVLFVQDEPANQGPWPFYQEHLPELIPNMPKMRRVSRRAQSSTATGVAKVHQLEEKQLIDEAFEA
notes: CgE1o C-terminal His tag, pAA62, 134,664 Da, mainly hexamer alone; CgE2 (70,905 Da, lipoylated) co-expressed with N-terminal His/Flag CgE3 (50,652 Da), pKH13; E. coli BL21-CodonPlus (DE3); tags not cut; gel-filtration purified; complex about 940 kDa; with Dihydrolipoamide acetyltransferase component of pyruvate dehydrogenase complex (E2); Dihydrolipoyl dehydrogenase (E3)
With B2 as the molecule, how does the Km (purified protein [5]) read?
Its Km is 10 ± 1 µM.
